Source: US20240384250A1, “FIBROBLAST GROWTH FACTOR 23 MODULATING COMPOUNDS” (THE UAB RESEARCH FOUNDATION, priority 2021, published 2024)

System: FGF23 and FGFR1c
Experiment: sKL detection assay (FGF23 coated, Fc-FGFR1c detection)
Type: binding
Experimental: Commercially available ELISA plates (Maxisorp) are coated with 5 μg/ml of recombinant FGF23 protein (R&D Systems) and unspecific binding sites are blocked with BSA/Tween20. Wells are incubated with sKL in solution (which can be plasma, serum or cell culture supernatants) for one hour, washed and incubated for one hour with 750 ng/ml of recombinant FGFR1α(IIIc)-Fc (R&D Systems), which is a chimeric protein consisting of the FGFR1 ectodomain and the Fc region of a human IgG. FGFR1 only binds to FGF23 in the presence of sKL, and the formation of this trimeric sandwich complex is then measured by detecting the presence of the Fc domain that is coupled to FGFR1. To do so, wells are washed and incubated with 400 ng/ml of anti-human IgG conjugated to horseradish peroxidase (HRP; Promega). Wells are washed and incubated with HRP substrate. After development for about 30 minutes, reactions are analyzed on a standard plate reader via absorptions at […]. Incubations with recombinant sKL dissolved in PBS at defined concentrations serve as standards that are used as reference values to determine sKL concentrations in the studied human samples. […]
HEK293 cells were plated in 10 cm dishes supplemented with 10% FBS (26140079, Gibco) and I× Pen/Strep (15140122, Gibco). Cells were transfected with appropriate klotho or green fluorescent protein cDNA constructs. After 2 days, clones were selected by using 1 μg/ml of puromycin (A1113803, Gibco). Cells were then split and plated in 10 cm dishes in DMEM supplemented with FBS and puromycin. After 48 hours, cells were lysed in 1 ml of RIPA buffer with the addition of a protease inhibitor (11873580001, Roche) for 30 minutes. The mixture was then centrifuged at 20,000 g for 1 hour to remove all cell debris. Activity assay was run as above in the sKL halflife study. Instead of serum, 20 μl of the indicated cell lysate was used and combined with 80 μl of activity assay buffer.

B1: sKL: recombinant soluble α-klotho ectodomain, mouse aa 35-982 and human aa 34-981, FLAG- or Strep/His-tagged, purified from HEK293 cells (protein)
chain: EPGDGAQTWARFSRPPAPEAAGLFQGTFPDGFLWAVGSAAYQTEGGWQQHGKGASIWDTFTHHPLAPPGDSRNASLPLGAPSPLQPATGDVASDSYNNVFRDTEALRELGVTHYRFSISWARVLPNGSAGVPNREGLRYYRRLLERLRELGVQPVVTLYHWDLPQRLQDAYGGWANRALADHFRDYAELCFRHFGGQVKYWITIDNPYVVAWHGYATGRLAPGIRGSPRLGYLVAHNLLLAHAKVWHLYNTSFRPTQGGQVSIALSSHWINPRRMTDHSIKECQKSLDFVLGWFAKPVFIDGDYPESMKNNLSSILPDFTESEKKFIKGTADFFALCFGPTLSFQLLDPHMKFRQLESPNLRQLLSWIDLEFNHPQIFIVENGWFVSGTTKRDDAKYMYYLKKFIMETLKAIKLDGVDVIGYTAWSLMDGFEWHRGYSIRRGLFYVDFLSQDKMLLPKSSALFYQKLIEKNGFPPLPENQPLEGTFPCDFAWGVVDNYIQVDTTLSQFTDLNVYLWDVHHSKRLIKVDGVVTKKRKSYCVDFAAIQPQIALLQEMHVTHFRFSLDWALILPLGNQSQVNHTILQYYRCMASELVRVNITPVVALWQPMAPNQGLPRLLARQGAWENPYTALAFAEYARLCFQELGHHVKLWITMNEPYTRNMTYSAGHNLLKAHALAWHVYNEKFRHAQNGKISIALQADWIEPACPFSQKDKEVAERVLEFDIGWLAEPIFGSGDYPWVMRDWLNQRNNFLLPYFTEDEKKLIQGTFDFLALSHYTTILVDSEKEDPIKYNDYLEVQEMTDITWLNSPSQVAVVPWGLRKVLNWLKFKYGDLPMYIISNGIDDGLHAEDDQLRVYYMQNYINEALKAHILDGINLCGYFAYSFNDRTAPRFGLYRYAADQFEPKASMKHYRKIIDSNGFPGPETLERFCPEEFTVCTECSFFHTRKS
modifications: left off: small tags and cut ends
notes: recombinant soluble α-klotho ectodomain, mouse aa 35-982 and human aa 34-981, FLAG- or Strep/His-tagged, purified from HEK293 cells
Q: Which “binding in the sKL detection assay, total cell lysates” value (lysates of stably transfected HEK293T cells) does the source give for B1 here?
A: Its value is “strong signal”.

Q: And the “binding activity relative to Com.sKL” value (purified proteins)?
A: The value was “approximately 7 ×”.
